Assay results taken from publication PMC11591946 (2024).

Target: alpha-synuclein (Homo sapiens, UniProt P37840)
Assay: SPR

Going from EQALMPWIWYWKDPNGS (preformed fibrils) [EQALMPWIWYWKDPNGS peptide] to ELAQMPYYYWKDPNGS (preformed fibrils) [ELAQMPYYYWKDPNGS peptide], the Kd rises from 28.4 µM to 133 µM (4.7-fold). The first binds more tightly here.

PYYYWKELAQM (preformed fibrils) [PYYYWKELAQM peptide] and PYYYWKDPNGS (preformed fibrils) [PYYYWKDPNGS peptide] are within 1.5-fold of each other in Kd: 55.2 µM for the first, 39.2 µM for the second.

ELAQMGPEGMGLEDPNGS (preformed fibrils) [ELAQMGPEGMGLEDPNGS peptide] gave a Kd of 194 µM.
